What all share (experiment): purified protein
What all share (details): 100 μM DCPIP as electron acceptor, 50 mM Tris-HCl, 1 mM EDTA, pH 8.0, 37°C, corrected to 100% Mo saturation

Substrate in series [1]: CC=O
It is filed as biochemical, Mus musculus.

Substrate in series [2]: COc1ccccc1C=O
It is filed as biochemical, Mus musculus.

Substrate in series [3]: c1ncc2[nH]cnc2n1
It is filed as biochemical, Mus musculus.

Substrate in series [4]: c1ccc2c(c1)cnc1ccccc12

B1: mAOX1 (Mus musculus) (protein)
chain: MDPIQLLFYVNGQKVVEKNVDPEMMLLPYLRKNLRLTGTKYGCGGGGCGACTVMISRYNPSTKAIRHHPVNACLTPICSLHGTAVTTVEGLGNTRTRLHPIQERIAKCHGTQCGFCTPGMVMSMYALLRNHPEPTLDQLTDALGGNLCRCTGYRPIIDACKTFCKASACCQSKENGVCCLDQEINGLAESQEEDKTSPELFSEEEFLPLDPTQELIFPPELMRIAEKQPPKTRVFYGERVTWISPVTLKELVEAKFKYPQAPIVMGYTSVGPEVKFKGVFHPIIISPDRIEELGVISQARDGLTLGAGLSLDQVKDILADIVQKLPEEKTQTYRALLKHLRTLAGSQIRNMASLGGHIVSRHLDSDLNPLLAVGNCTLNLLSKDGERRIPLSEEFLRKCPEADLKPQEVLVSVNIPWSRKWEFVSAFRQAQRQQNALAIVNSGMRVLFREGGGVIEELSILYGGVGSTIISAKNSCQRLIGRPWNEGMLDTRCRLVLDEVTLAASAPGGKVEFKRTLIISFLFKFYLEVSQGLKREDPGHSPSLAGNHESALDDLHSKHPWRTLTHQNVDPAQLPQDPIGRPIMHLSGIKHATGEAIYCDDMPAVDRELFLTFVTSSRAHAKIVSIDLSEALSLPGVVDIITADHLQEANTFGTETFLATDEVHCVGHLVCAVIADSETRAKQAAKQVKVVYQDLAPLILTIEEAIQHKSFFKSERKLECGNVDEAFKIVDQILEGEIHIGGQEHFYMETQSMLVVPKGEDGEIDIYVSTQFPKYIQDIVAATLKLSANKVMCHVRRVGGAFGGKVGKTSILAAITAFAASKHGRAVRCILERGEDMLITGGRHPYLGKYKAGFMNEGRILALDVEHYCNGGCSLDESLWVIEMGLLKLDNAYKFPNLRCRGWACRTNLPSNTALRGFGFPQAGLVTEACITEVAIKCGLSPEQVRTINMYKHVDTTHYKQEFSAKALSECWRECMAKCSYFERKAAIGKFNAENSWKKRGMAVIPLKFPVGIGSVAMGQAAALVHIYLDGSALVSHGGIEMGQGVHTKMIQVVSRELRMPMSSVHLRGTSTETVPNTNASGGSVVADLNGLAVKDACQTLLKRLEPIISKNPQGTWKDWAQTAFDQSISLSAVGYFRGYESNIDWEKGEGHPFEYFVFGAACSEVEINCLTGDHKNIRTNIVMDVGHSINPALDIGQVEGAFIQGMGLYTIEELSYSPQGTLYSRGPNQYKIPAICDIPTEMHISFLPPSEHSNTLYSSKGLGESGVFLGCSVFFAIHDAVKAARQERGISGPWKLNSPLTPEKIRMACEDKFTKMIPRDEPGSYVPCNIPV
notes: recombinant from E. coli TP1000 (codon-optimized plasmid pMAOX1co), Ni-NTA and Superdex 200 purified, chemically sulfurated, dimer (300 kDa)
For the protein B1, the Km was 18 mM in the series “purified protein [1]”, 0.0066 ± 0.0015 mM in the series “purified protein [2]”, 9.028 ± 0.971 mM in the series “purified protein [3]” and 0.0025 ± 0.0011 mM in “purified protein [4]”. The kcat in the series “purified protein [2]” was 6.885 ± 0.362 s⁻¹; in “purified protein [3]”, 7.147 ± 0.29 s⁻¹; in “purified protein [4]”, 2.013 ± 0.277 s⁻¹.

A word on the Km: it is the concentration of substrate that gives half-maximal velocity. The kcat is the number of substrate molecules converted per active site and unit of time at saturation.

The values are drawn from PMC5784979, “Direct comparison of the four aldehyde oxidase enzymes present in mouse gives insight into their substrate specificities” (PLoS ONE, 2018).
